Measured values as given in patent US8841421B2, “S100A9 interaction screening method” (Active Biotech, AB, priority 2007, dated 2014).
One block for each molecule: values may come before it.

What was measured:
immobilized RAGE = biological target: T1, immobilized RAGE (Homo sapiens, UniProt Q15109); test: Binding of S100 proteins to immobilized RAGE (Biacore); conditions: 200 nM protein
T1 construct: the extracellular domain of RAGE, comprising a.a; 1-344; purchased R&D Systems 1145-RG; host or cells: mouse myeloma cell line NS0
T1 sequence (Q15109 23-344): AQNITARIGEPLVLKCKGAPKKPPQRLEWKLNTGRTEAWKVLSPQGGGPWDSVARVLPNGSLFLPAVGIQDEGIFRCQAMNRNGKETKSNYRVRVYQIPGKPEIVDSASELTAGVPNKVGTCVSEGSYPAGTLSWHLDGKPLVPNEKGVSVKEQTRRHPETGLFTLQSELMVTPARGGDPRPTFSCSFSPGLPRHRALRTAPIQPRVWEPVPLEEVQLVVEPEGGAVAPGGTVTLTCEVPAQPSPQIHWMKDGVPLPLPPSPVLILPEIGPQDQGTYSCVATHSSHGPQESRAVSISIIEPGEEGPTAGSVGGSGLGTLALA
Description: Responses were obtained as Req values after fit of data to a 1:1 binding model or as the signal at late association phase (t˜235 s). Experimental conditions were as in FIG. 1. Signals were not corrected for mass contribution.
In vivo, S100A9 usually forms hetero-dimeric complexes with S100A8.
(§1) Binding analysis was performed using the “surface plasmon resonance” (SPR) technology with a Biacore 3000™ system. This technology allows analysis of an interaction between proteins and small molecules in a real-time and label-free manner. A protein or low-molecular weight compound is injected over a surface (a CM5 sensor chip) with a covalently coupled ligand and the signal produced, expressed as resonance units (RU), is directly proportional to the number and mass of the molecule interacting with the ligand on the surface. Immobilization, regeneration scouting, surface performance tests and binding studies were conducted basically according to the instructions by the manufacturer. Kinetic evaluation of binding data was carried using the BIAevaluation Software Version 3.2 (Biacore AB). Optimization of conditions for immobilization and binding analysis is carried out for each interaction to be studied. A biosensor analysis cycle consists of: (i) injection of S100A9 over the RAGE surface for 3 min (association phase) or (i) injection of S100A9 over the TLR4/MD-2 surfaces, in the absence or presence of 100 ng/mL LPS, for 3 min (association phase); (ii) injection of running buffer for 2.5 min (dissociation phase); (iii) injection of a 30 s pulse of 10 mM glycine-HCl, pH 2.0-2.125 (regeneration phase); and (iv) injection of running buffer for 2 min (stabilization after regeneration) at a flow rate of 30 μl/min.
Recombinant human RAGE was obtained from R&D Systems (cat. No. 1145-RG) as a fusion protein of the extracellular domain of RAGE, comprising a.a. 1-344, and the Fc region of human IgG1 via a peptide linker. The chimeric protein was expressed in the mouse myleoma cell line NSO as a disulfide-linked homo-dimeric protein with a calculated molecular mass of 61 kDa. Prior to covalent coupling to the sensor chip, buffer was changed to a standard Biacore buffer (10 mM Hepes, 0.15 M NaCl, pH 7.4, containing 0.005% v/v Surfactant P20; HBS-P) using Fast Protein Desalting Micro-Spin Columns (Pierce). RAGE was diluted in an immobilization buffer shown to give sufficient pre-concentration and then covalently coupled using the “Aim at immobilization level” function in the Biacore Wizard to obtain various coupling densities. Activity of immobilized RAGE was tested by injecting a specific anti-human RAGE monoclonal antibody over the surface. Due to extensive glycosylation of RAGE relative to that of the Fc domain and a higher mass of the latter, it was also assumed that chimeric RAGE/Fc will be coupled predominantly via the Fc domain and result in a semi-oriented coupling to the sensor chip. HBS-P, with a final concentration of 1 mM CaCl2 and 10 μM ZnCl2, was used as sample and running buffer throughout the study. For regeneration of the surface after each cycle, a pulse of 10 mM glycine-HCl, pH 2.125, was used. To determine optimal zinc concentration for binding of S100A9 protein to RAGE, the interaction was allowed to take place at a fixed calcium concentration (1 mM) and with the zinc concentration titrated from zero to ten μM.

[1] = biological target: T2, S100A9 binding to immobilized RAGE (Homo sapiens, UniProt P06702); test: Biacore competition assay: displacement of S100A9 binding to immobilized RAGE; conditions: for IC50, displacement of S100A9 binding to RAGE: 200 nM S100A9, log-logit plot, linear regression
T2 construct: made in house; host or cells: E. coli
T2 sequence (P06702 1-114): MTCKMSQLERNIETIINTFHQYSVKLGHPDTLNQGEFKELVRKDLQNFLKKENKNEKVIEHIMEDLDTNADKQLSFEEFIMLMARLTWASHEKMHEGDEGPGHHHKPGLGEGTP
Description: Sensorgrams from top to bottom represent: S100A9 without and with 15.625, 31.25, 62.5, 125, 250, 500 and 1000 μM compound A as competitor and from sample buffer without S100A9 and competitor. In (B), binding data is plotted as an inhibition curve (♦) and the response for S100A9 in the absence of competitor (dotted line). In (C), binding data is plotted after log-logit transformation. […] Arrows in (A) indicate start of the association phase (1), i.e. injection of S100A9±competitor, and dissociation phase (2), where running buffer is pumped over the surface. Injection time, flow rate and regeneration conditions were as in FIG. 1.
Binding analysis was performed using the “surface plasmon resonance” (SPR) technology with a Biacore 3000™ system. This technology allows analysis of an interaction between proteins and small molecules in a real-time and label-free manner. A protein or low-molecular weight compound is injected over a surface (a CM5 sensor chip) with a covalently coupled ligand and the signal produced, expressed as resonance units (RU), is directly proportional to the number and mass of the molecule interacting with the ligand on the surface. Immobilization, regeneration scouting, surface performance tests and binding studies were conducted basically according to the instructions by the manufacturer. Kinetic evaluation of binding data was carried using the BIAevaluation Software Version 3.2 (Biacore AB). Optimization of conditions for immobilization and binding analysis is carried out for each interaction to be studied. […]
Recombinant human RAGE was obtained from R&D Systems (cat. No. 1145-RG) as a fusion protein of the extracellular domain of RAGE, comprising a.a. […] The chimeric protein was expressed in the mouse myleoma cell line NSO as a disulfide-linked homo-dimeric protein with a calculated molecular mass of 61 kDa. […]
Recombinant S100A9, expressed as the full-length sequence of native protein in E. coli was obtained using a four-step purification protocol. […]

human TLR4/MD-2 = biological target: T3, human TLR4/MD-2 (Homo sapiens, UniProt O00206+Q9Y6Y9); test: Biacore direct binding of S100A9 to amine-coupled TLR4/MD-2; conditions: 1:1 Langmuir binding model
T3 construct: human TLR4 (Glu 24-Lys 631), and 10× histidines; human MD-2 (Glu 17-ASN 160), and 10× histidines; human CD33 signal peptide (Met 1-Ala 16) (N); purchased R&D Systems 3146-TN/CF; host or cells: mouse myeloma cell line NS0
T3 sequence (O00206 24-631): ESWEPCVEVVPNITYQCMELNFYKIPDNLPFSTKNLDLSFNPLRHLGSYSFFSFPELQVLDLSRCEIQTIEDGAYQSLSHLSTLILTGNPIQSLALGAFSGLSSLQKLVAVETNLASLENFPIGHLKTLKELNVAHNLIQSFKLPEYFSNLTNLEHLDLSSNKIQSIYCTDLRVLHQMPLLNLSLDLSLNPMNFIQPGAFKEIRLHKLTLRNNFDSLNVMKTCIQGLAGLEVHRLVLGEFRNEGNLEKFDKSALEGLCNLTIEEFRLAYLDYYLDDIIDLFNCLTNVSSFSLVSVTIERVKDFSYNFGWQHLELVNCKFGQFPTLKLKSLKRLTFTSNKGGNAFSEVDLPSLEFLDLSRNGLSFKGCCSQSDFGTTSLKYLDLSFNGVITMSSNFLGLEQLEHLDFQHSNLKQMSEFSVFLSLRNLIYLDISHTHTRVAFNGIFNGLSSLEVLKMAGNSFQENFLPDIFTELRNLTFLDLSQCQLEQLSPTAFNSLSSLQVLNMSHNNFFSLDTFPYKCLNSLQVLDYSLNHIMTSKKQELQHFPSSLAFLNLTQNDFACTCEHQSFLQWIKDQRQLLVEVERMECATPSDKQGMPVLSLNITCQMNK
T3 sequence (Q9Y6Y9 17-160): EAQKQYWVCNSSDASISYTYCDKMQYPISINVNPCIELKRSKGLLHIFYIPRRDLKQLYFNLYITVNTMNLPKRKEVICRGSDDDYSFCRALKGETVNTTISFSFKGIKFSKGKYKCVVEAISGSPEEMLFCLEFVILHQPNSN
Description: The TOLL-like receptor 4 was immobilized on the sensor chip. Binding to S100A9 was detected. […] Sensorgrams from bottom to top represent injection of sample buffer in the absence of S100A9, 100 and 200 nM S100A9 after subtraction of the signal in the reference flow cell. Injection time was 3 min at a flow rate of 30 μL/min and regeneration was performed with a 30 μl pulse of 3 mM EDTA in HBS-P buffer (HBS-EP) for 60 s. Arrows indicate injection of sample (1; association phase), running buffer (2; dissociation phase) and regeneration solution (3). HBS-P containing 1 mM CaCl2 and 10 μM ZnCl2 (Robinson et al. 2002) was used as running and sample buffer. An apparent dissociation constant of […], on- and off-rates of 3.9×10^4 l/Ms and 3.5×10^−4 l/s, and maximal binding at 1.8×10^3 RU were calculated after fitting data to a 1:1 Langmuir binding model (Chi2 6.8).
as §1
Recombinant human TLR4/MD-2 was obtained from R&D Systems (cat. no. 3146-TN/CF) as a non-covalently associated protein of the respective extracellular domains. […]
(§2) Recombinant S100A9, expressed as the full-length sequence of native protein in E. coli was obtained using a four-step purification protocol. […] Buffer was changed to HBS-P using the Fast Protein Desalting Spin Columns and concentration determined in the BCA protein assay from Pierce with bovine albumin as standard. […]

[2] = biological target: T4, S100A9 binding to immobilized human TLR4/MD-2 complex (Homo sapiens, UniProt P06702); test: Biacore competition assay: displacement of S100A9 binding to immobilized TLR4/MD-2; conditions: sigmoidal dose-response (variable slope) fit
T4 construct: made in house; host or cells: E. coli
T4 sequence (P06702 1-114): T2 sequence (P06702 1-114)
Description: Sensograms from top to bottom represent: S100A9 without and with 7.8125, 15.625, 31.25, 62.5, 125, 250, 500 and 1000 μM compound A as competitor. In (B), binding data is plotted as an inhibition curve. […] Arrows in (A) indicate start of the association phase (1), i.e. injection of S100A9±competitor, and dissociation phase (2), where running buffer is pumped over the surface. Injection time, flow rate and regeneration conditions were as in FIG. 1. HBS-P containing 1 mM CaCl2 and 10 μM ZnCl2 (Robinson et al. 2002) was used as running and sample buffer.
Binding analysis was performed using the “surface plasmon resonance” (SPR) technology with a Biacore 3000™ system. This technology allows analysis of an interaction between proteins and small molecules in a real-time and label-free manner. A protein or low-molecular weight compound is injected over a surface (a CM5 sensor chip) with a covalently coupled ligand and the signal produced, expressed as resonance units (RU), is directly proportional to the number and mass of the molecule interacting with the ligand on the surface. […]
as §2

human S100A9 = biological target: T5, human S100A9 (Homo sapiens, UniProt P06702); test: Biacore competition assay: S100A9 binding to immobilized amino-linked Compound A; conditions: sigmoidal dose-response (variable slope) fit
T5 construct: made in house; host or cells: E. coli
T5 sequence (P06702 1-114): T2 sequence (P06702 1-114)
Description: The anti-S100A9 mAb 43/8 ability to block the binding of human S100A9 to amino-linked Compound A was measured by BIACORE™ direct binding assay. The assay was performed by coating amino-linked Compound A on a CM5 chip using standard amine coupling. S100A9 at 100 nM was injected over immobilized Compound A in the absence or presence of mAb 43/8 for 3 min at a flow rate of 30 μl/min in sample buffer (HBS-P buffer containing 1 mM Ca^2+ and […]) (1; association phase), followed by injection of sample buffer (2; dissociation phase).
Responses at late association phase, obtained after injection of 100 nM S100A9, pre-incubated for at least 1 h at room temperature ±12.5-500 nM monoclonal anti-S100A9 antibody, over immobilized Compound A were plotted versus concentration of anti-S100A9 antibody.
Samples were injected for 3 min at 30 μl/min in HBS-P buffer over amine coupled RAGE,TLR4/MD-2 and Compound A. Binding +/− competitor was calculated as response at lateassociation phase or by fit of sensorgrams to a 1:1 Langmuir model. ICso values were calculated by fitting data to a sigmoidal dose-response (variable slope) model in Graph-Pad Prism.

Molecule: S100A8/9 hetero-dimer: hetero-dimeric complex of S100A8 and S100A9
binding to RAGE (in words) (immobilized RAGE): significantly lower binding

Molecule: S100B: S100 protein, putative RAGE ligand [Compound S100B]
binding to RAGE (in words) (immobilized RAGE): weak or no binding

Molecule: heparin
IC50, displacement of S100A9 binding to RAGE [1]: 0.0404 µg/mL

Molecule: S100A9: recombinant S100A9, full-length sequence of native protein expressed in E. coli; SEQ ID NO: 1 [Compound S100A9]
binding to RAGE relative to next group of RAGE binders (AnxII, S100A12, S100A8/9) (immobilized RAGE): more than 10 fold
maximal binding (human TLR4/MD-2): 1.8×10^3 RU
off-rate (human TLR4/MD-2): 0.00035 L/s
on-rate (human TLR4/MD-2): 3.9×10^4 l/Ms
Kd (human TLR4/MD-2; read-out: apparent dissociation constant): 0.086 µM

B1: S100A12: S100 protein, putative RAGE ligand; purified from human granulocytes (protein)
chain: TKLEEHLEGIVNIFHQYSVRKGHFDTLSKGELKQLLTKELANTIKNIKDKAVIDEIFQGLDANQDEQVDFQEFISLVAIALKAAHYHTHKE
binding to RAGE (in words) (immobilized RAGE): weak or no binding

B2: S100P: S100 protein, putative RAGE ligand (protein, UniProt P25815 1-95, looked up)
Protein S100-P: MTELETAMGMIIDVFSRYSGSEGSTQTLTKGELKVLMEKELPGFLQSGKDKDAVDKLLKDLDANGDAQVDFSEFIVFVAAITSACHKYFEKAGLK
binding to RAGE (in words) (immobilized RAGE): weak or no binding

Now from value to molecule:

binding to RAGE (in words) (immobilized RAGE): weak or no binding
Molecule: S100A1: S100 protein, putative RAGE ligand [Compound S100A1]

IC50, displacement of S100A9 binding to RAGE [1]: 0.0257 µg/mL
Molecule: heparan sulfate

IC50 [2]: 458 µM
IC50 ([1]; sigmoidal dose-response (variable slope) fit): 399 µM
IC50 (human S100A9): 873 µM
Molecule: COc1ccc(C2CNC(=O)C2)cc1OC1CCCC1 (racemic) [Rolipram, (+/−)-4-(3-cyclopentyloxy-4-methoxyphenyl)-2-pyrrolidone]
